According to US20130183315A1 (GLENMARK PHARMACEUTICALS S A, published 2013):
Residue numbers refer to the chain shown, from its start. Each block holds one binder with its values, some of them ahead of it.

Key:
[1] = molecular target: T1, recombinant human OX40-his protein (human, UniProt P43489 29-214); test: SPR, antibody captured on protein A, OX40-his as analyte
T1 construct: Secretion driven by the native signal peptide of human TNFRSF4; also called recombinant histidine tagged human OX40 receptor extracellular domain; recombinant monovalent human OX40 receptor extracellular domain
T1 sequence: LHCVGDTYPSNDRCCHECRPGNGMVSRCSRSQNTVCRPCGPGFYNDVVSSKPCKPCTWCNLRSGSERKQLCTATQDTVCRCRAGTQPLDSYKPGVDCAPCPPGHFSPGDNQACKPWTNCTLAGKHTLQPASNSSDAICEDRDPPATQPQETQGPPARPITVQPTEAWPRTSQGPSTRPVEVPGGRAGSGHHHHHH
Experimental: (§1) Kinetic binding affinity constants (KD) were measured on protein-A captured antibody using recombinant histidine tagged human OX40 receptor extracellular domain as described in Example 1 as analyte. Measurements were conducted on a BIAcore 2000 (GE Healthcare—BIAcore, Uppsala, Sweden) at room temperature, and analyzed with the BiaEvaluation software (BIAcore; v4.1).
(§2) A CMS research grade sensor chip (GE Healthcare Europe GmbH, Glattbrugg, Switzerland; BR-1000-14) was activated by injecting 35 μl of a 1:1 N-hydroxysulfosuccinimide (NHS)/1-Ethyl-3-[3-dimethylaminopropyl]carbodiimide Hydrochloride (EDC) solution (v/v; 5 μl/min flow-rate; on flow paths 1 and 2). Protein-A (ref. P7837; Sigma-Aldrich Chemie GmbH, Buchs, Switzerland) was diluted to a final concentration of 50 μg/ml in acetate buffer pH 4.5 (GE, BR-1003-50; one pH unit below pI) and subsequently immobilized on the previously activated CMS sensor chip by injecting 35 μl on both flow path 1 and 2 (5 μl/min); this corresponded to approximately 1500 response units (RUs). The protein-A-CMS sensor chip was then deactivated by injecting 35 μl of ethanolamine solution (5 μl/min). Finally, two injections of 10 μl of glycine solution (GE, ref BR-1003-54; 10 mM; pH 1.5) were performed to release non-crosslinked protein-A molecules.
(§3) 10 μl of this diluted stock were subsequently injected on the flow-path 2 of the protein-A CMS chip (30 μl/min) to reach 200-250 RUs. Following this capture step, the recombinant histidine tagged human OX40 receptor extracellular domain was injected at different concentrations (50 nM to 0.4 μM) on the flow-path 1 and 2 (flow-path 1 being used as reference) at a 30 μl/min flow rate. After each binding event, surface was regenerated with glycine buffer pH 1.5 injected for 1 min (10 μl/min)

[2] = molecular target: T2, recombinant human OX40-Fc protein (human, UniProt P43489 29-214); test: blocking ELISA on coated human OX40-Fc; blocked ligand: biotinylated recombinant human OX40L, streptavidin-HRP detection
T2 construct: also called human TNFRSF4 extracellular domain-Fc fusion protein; HHHH; not shown: Fc region of a human IgG1, EU positions 223-451 as printed
Experimental: In order to determine if the generated anti-OX40 antibodies can block the binding of OX40L to the OX40 receptor, a blocking ELISA was developed. Ninety-six well-microtiter plates (Costar, USA; distributor VWR AG, Nyon, Switzerland) were coated with 100 μl of recombinant human OX40-Fc (see Example 1) at 2 μg/ml in PBS. Plates were incubated overnight at 4° C. and were then blocked with PBS 2% BSA at RT for one hour. The blocking solution was removed and the hybridoma supernatants or purified antibodies were added to the plate. Five minutes later, 50 μl of biotinylated-recombinant human OX40L at 0.04 mg/ml was added to each well. Plates were incubated at RT for 60 minutes, then washed nine times with PBS 0.01% Tween-20 and HRP-streptavidin (Sigma-Aldrich Chemie GmbH, Buchs, Switzerland) was added at a dilution of 1:2000. Plates were incubated for 30 minutes at RT, washed 9 times with PBS 0.01% Tween-20 and the TMB substrate (Bio-rad Laboratories AG, Reinach, Switzerland) was added to the plates and the reaction stopped after 6 minutes by adding H₂SO₄. Absorbance was then read at 450 nm by a microplate reader (Biotek, USA; distributor: WITTEC AG, Littau, Switzerland).

[3] = molecular target: T1, recombinant human OX40-his protein; test: SPR, antibody captured on protein A, OX40-his as analyte, duplicates; lower of the two duplicate measurements
Experimental: as §1, §3
Measurements were performed in duplicates with the captured chimeric 1D4 anti-human OX40 antibody immobilized onto the protein-A sensor chip and the recombinant histidine tagged human OX40 receptor extracellular domain as analyte.

[4] = molecular target: T1, recombinant human OX40-his protein; test: SPR (BIAcore): antibody captured on protein A chip, human OX40-his as analyte; traces aligned at 0 s, falling phase only
Experimental: as §1
as §2, with “molecules. […]” for “molecules.”

[5] = molecular target: T3, human OX40 expressed on the surface of human activated lymphocytes (human, UniProt P43489 29-277); test: cell-based or functional assay
T3 sequence: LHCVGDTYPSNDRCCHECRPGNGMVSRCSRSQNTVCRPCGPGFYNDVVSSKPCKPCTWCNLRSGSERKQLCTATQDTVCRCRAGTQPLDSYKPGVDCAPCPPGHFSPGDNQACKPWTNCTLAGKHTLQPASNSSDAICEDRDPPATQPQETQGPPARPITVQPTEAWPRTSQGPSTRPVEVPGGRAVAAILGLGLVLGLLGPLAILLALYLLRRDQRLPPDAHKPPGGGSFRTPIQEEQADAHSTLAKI

[6] = molecular target: T4, rat OX40 extracellular region Fc fusion protein (rat; human, UniProt P15725 20-210); test: ELISA on coated OX40 Fc fusion (2 µg/mL), anti-human F(ab')2-HRP detection
T4 construct: also called RRRR; rat OX40 protein
Experimental: (§4) Rat and human-rat OX40 proteins were formatted as Fc fusions proteins according to the method described in Example 1. For the ELISA, OX40 proteins were coated at 2 μg/mL, in PBS, overnight at 4° C. on high binding 96-well plates (Coastar). The plates were blocked with PBS 2% Bovine Serum Albumin (BSA) before incubation with the VH6/VL9 antibody or isotype control antibody. The plates were then washed and incubated with goat-anti human Ig F(ab′)2 fragment specific-HRP (Jackson ImmunoResearch Europe Ltd, Newmarket, UK). After washing, the plates were incubated with TMB substrate (Bio-Rad Laboratories AG, Reinach, Switzerland) to reveal antibody binding. The reaction was stopped by adding 2M H₂SO₄ and the optical density was read at 450 nm (OD 450 nm) on a Synergy HT2 spectrophotometer (Biotek, USA; distributor: WITTEC AG, Littau, Switzerland).
(§5) A binding ELISA was performed to test the reactivity of the VH6/VL9 antibody on human OX40 extracellular region (abbreviated HHHH with SEQ ID NO: 11), rat OX40 extracellular region (abbreviated RRRR with SEQ ID NO: 52), and on four human-rat chimeric proteins: RHRR (SEQ ID NO: 53), HRRR (SEQ ID NO: 54), HHRR (SEQ ID NO: 55), and RRHH (SEQ ID NO: 56).

[7] = molecular target: T5, chimeric RRHH OX40 protein (Fc fusion) (human-rat chimera; human); test: as above
T5 chain (part 1 of 2): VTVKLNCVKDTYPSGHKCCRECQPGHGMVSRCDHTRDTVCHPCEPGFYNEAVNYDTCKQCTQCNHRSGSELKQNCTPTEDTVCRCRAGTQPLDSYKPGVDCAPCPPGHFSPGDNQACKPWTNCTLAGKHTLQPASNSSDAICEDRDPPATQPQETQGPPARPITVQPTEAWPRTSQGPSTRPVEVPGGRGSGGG
T5 chain (part 2 of 2): SAHHHHHH
Experimental: as §4, §5

B2: VH4/VL9 (antibody, human IgG1, kappa, V domains shown)
VH: QVTLKESGPALVKPTQTLTLTCSFSGFSLSTSGMGVSWIRQPPGKALEWIAHIWWDDDKYYSTSLKTRLTISKDTSKNQVVLTMTNMDPVDTATYYCARIDWDGFAYWGQGTLVTVSS
VL: EIVLTQSPATLSLSPGERATLSCRASSSVSYMHWYQQKPGQAPRPWIYATSNRATGIPARFSGSGSGTDYTLTISSLEPEDFAVYYCQQWSSNPWTFGQGTKVEIKR
notes: Humanized, IGHG1, kappa
binding result [4]: binds

B3: VH6/VL9 antibody (antibody, human IgG1, kappa, V domains shown)
VH: B2 VH with S37G, S62N, S64A
VL: B2 VL
notes: Humanized, IGHG1, kappa; also called humanized anti-OX40 antibody VH6/VL9; VH6/VL9 IGHG1 format
inhibition of mixed lymphocyte reaction (3H thymidine incorporation), EC50 [5]: ~0.1 µg/mL | binding result [6]: no binding (tested: not printed) | binding result [7]: no binding (tested: not printed) | Kd [1]: 101 nM | koff [1]: 0.00356 s⁻¹ | kon [1]: 35400 M⁻¹ s⁻¹

Continued, values first:

Kd [1]: 91 nM | koff [1]: 0.00308 s⁻¹ | kon [1]: 34000 M⁻¹ s⁻¹ | IC50 (read off the curve) [2]: ~0.3 µg/mL | Kd [3]: 91 to 116 nM
B1: chimeric 1D4 antibody (antibody, human IgG1, kappa, V domains shown)
VH: QVTLKESGPGILQPSQTLSLTCSFSGFSLSTSGMGVGWIRQPSGKGLEWLAHIWWDDDKYYNTALKSGLTISKDTSKNQVFLKIASVDTTDTATYYCARIDWDGFAYWGQGTLVTVSS
VL: QIVLTQSPAILSASPGEKVTMTCRASSSVSYMHWYQQKPGSSPKPWIYATSNLASGVPARFSGSGSGTSYSLTINRVEAEDAATYYCQQWSSNPWTFGGGTKLEIKR
notes: Biotinylated for the staining of cynomolgus cells; also called 1D4 chimera; 1D4 chimeric antibody

binding result [4]: binds
B4: VH5/VL9 (antibody, human IgG1, kappa, V domains shown)
VH: B2 VH with S62N, S64A
VL: B2 VL
notes: Humanized, IGHG1, kappa
